Positions count from the first letter of the chain named.
B1: 1447-G01 scFv-Fc (Fc fusion, part only; not given: Fc portion, part only)
chain, part: EVQLLESGGGLVQPGGSLRLSCAASGFTFNTSDMSWVRQAPGKGLEWVGIINGSGGATNYADSVKGRFTISRDNSKNTLYLQMNSLRAEDTAVYYCAKYENEMEVSMDYWGQGTLVTVSSGGGGSGGGGSGGGGSEIVLTQSPGTLSLSPGERATLSCRASQSVSSRELGWYQQKPGQAPRLLIYGASSRATGIPDRFSGSGSGTDFTLTISRLEPEDFAVYYCQQQCSWPPTFGQGTKVEIK
B2: 1447-E08 scFv-Fc (Fc fusion, part only; not given: Fc portion, part only)
chain, part: EVQLLESGGGLVQPGGSLRLSCAASGFTFNDTDMSWVRQAPGKGLEWVGMINGAGGASFYADSVRGRFTISRDNSKNTLYLQMNSLRAEDTAVYYCAKFENQWEVTFDYWGQGTLVTVSSGGGGSGGGGSGGGGSEIVLTQSPGTLSLSPGERATLSCRASQRVAGIDLSWYQQKPGQAPRLLIYGASSRATGIPDRFSGSGSGTDFTLTISRLEPEDFAVYYCQQHNTTPPTFGQGTKVEIK
B3: 1193-B06 (scFv)
scFv: EVQLLESGGGLVQPGGSLRLSCAASGFTFTGNWMSWVRQAPGKGLEWVGIIYGTSGATYYADSVKGRFTISRDNSKNTLYLQMNSLRAEDTAVYYCAKPSMSGSRGFDYWGQGTLVTVSSGGGGSGGGGSGGGGSEIVLTQSPGTLSLSPGERATLSCRAGQSVSSSYLAWYQQKPGQAPRLLIYGASSRATGIPDRFSGSGSGTDFTLTISRLEPEDFAVYYCQQHYTTPPTFGQGTKVEIK
B4: 1193-C08 (scFv)
scFv: EVQLLESGGGLVQPGGSLRLSCAASGFTFNNNWMSWVRQAPGKGLEWVGIINGDDGYTYYADRVKGRFTIIRDNSKNTLYLQMNSLRAEDTAVYYCAKVALGRPRRFDYWGQGTLVTVSSGGGGSGGGGSGGGGSEIVLTQSPGTLSLTPGERATLSCRASQSVSSNYLAWYQQKPGQAPRLLIYGASSRATGIPDRFSGSGSGTDFTLTISRLEPEDFAMYYCQQHYTTPPTFGQGTKVEIK
B5: 1193-E06b (scFv)
scFv: EVQLLESGGGLVQPGGSLRLSCAASGFTFNNTDMSWVRQAPGKGLEWVGIINGSGGATNYADSVKGRFTISRDNSKNTLYLQMNSLRAEDTAVYYCAKFENEWEVSMDYWGQGTLVTVSSGGGGSGGGGSGGGGSEIVLTQSPGTLSLSPGERATLSCRASQSVSSSYLAWYQQKPGQAPRLLIYGASSRATGIPDRFSGSGSGTDFTLTISRLEPEDFAVYYCQQHYTTPPTFGQGTKVEIK
B6: 1193-H04b (scFv)
scFv: EVQLLESGGGLVQPGGSLRLSCAASGFTFTSSWMSWVRQAPGKGLEWVGIINGYNGITYYADSVKGRFTISRDNSKNTLYLQMNSLRAEDTAVYYCAKPSAPGARRFDYWGQGTLVTVSSGGGGSGGGGSGGGGSEIVLTQSPGTLSLSPGEATLSCRASQSVSSSYLAWYQQRPGQAPRLLIYGASSRATGIPDRFSGSGSGTDFTLTISRLEPEDFAVYYCQQHYTTPPTFGQGTKVEIK
B7: 1251-A03 heavy chain paired with VL SEQ ID NO: 272 (antibody, V domains shown)
VH: QVQLVESGGGVVQPGRSLRLSCAASGFAFSDHGMHWVRQAPDKGLEWVAVIWYDGSHKIYADSVKGRFTISRDNSKNTLYLQMNSLRAEDTAVYYCARGGSLAGGAVYGTDVWGQGTTVTVSS
VL: DIQMTQSPSSLSASVGDRVTITCRASQGISSWLAWYQQKPEKAPKSLIYAASSLQSGVPSRFSGSGSGTDFTLTISSLQPEDFATYYCQQYNSYPLTFGGGTKVEIK
B8: 1251-F06 heavy chain paired with VL SEQ ID NO: 272 (antibody, V domains shown)
VH: QVQLVESGGGVVQPGRSLRLSCAASGFTFSSFGMHWVRQAPDKGLEWVAVIWYDGSNEYYADSVKGRFTISRDNSKNTLYLQMNSLRAEDTAVYYCARGGSLVTRGVYGLDVWGQGTTVTVSS
VL: B7 VL
B9: 1251-G02 heavy chain paired with VL SEQ ID NO: 272 (antibody, V domains shown)
VH: B8 VH with F32Y, Y53H, N57K, E58D, S101Q, V103D, T104H, R105G, G106A, V107I
VL: B7 VL
B10: 1251-B09 heavy chain paired with VL SEQ ID NO: 272 (antibody, V domains shown)
VH: QVQLVESGGGVVQPGRSLRLSCAASGFNFSDYGMHWVRQAPDKGLEWVAVTWYDGSREYYADSVKGRFTISRDNSKNTLYLQMNSLRAEDTAVYYCARGGTLVHGALYGNDVWGQGTTVTVSS
VL: B7 VL
B11: 1251-B08 heavy chain paired with VL SEQ ID NO: 272 (antibody, V domains shown)
VH: B10 VH with T51I, R57I, E58S, L102V, V103E, L107V, N110T, T117A
VL: B7 VL
B12: 1337-A10 light chain paired with VH 1251-A06 (SEQ ID NO: 236) (Fab, V domains shown)
VH: QVQLVESGGGVVQPGRSLRLSCAASGFDFSSYGMHWVRQAPDKGLEWVAVIWDDGSDRYYADSVKGRFTISRDNSKNTLYLQMNSLRAEDTAVYYCARGGTRVLGAIHGTDVWGQGTTVTVSS
VL: B7 VL with L33V, A50G, A51S, S53R, S93T
B13: 1337-A07 light chain paired with VH 1251-A06 (SEQ ID NO: 236) (Fab, V domains shown)
VH: B12 VH
VL: B7 VL with L33V, A50G, S53R, N92H, S93T
B14: 1251-A06 heavy chain paired with VL SEQ ID NO: 272 (antibody, V domains shown)
VH: B12 VH
VL: B7 VL
B15: 1337-A04 light chain paired with VH 1251-A06 (SEQ ID NO: 236) (Fab, V domains shown)
VH: B12 VH
VL: B7 VL with G28D, S30G, S31R, L33V, A50G, S93T
B16: 1337-A06 light chain paired with VH 1251-A06 (SEQ ID NO: 236) (Fab, V domains shown)
VH: B12 VH
VL: B7 VL with G28D, S30G, L33V, A50G, S52D, S53R
B17: 1251-C03 heavy chain paired with VL SEQ ID NO: 272 (antibody, V domains shown)
VH: QVQLVESGGGVVQPGRSLRLSCAASGFNFSSYGMHWVRQAPDKGLEWVAVIWYDGSIKNYADSVKGRFTISRDNSKNTLYLQMNSLRAEDTAVYYCARGGALMRGEFSGHDVWGQGTTVTVSS
VL: B7 VL
B18: 1251-D02 heavy chain paired with VL SEQ ID NO: 272 (antibody, V domains shown)
VH: B12 VH with D28S, S30A, Y32H
VL: B7 VL
B19: 1251-F07 heavy chain paired with VL SEQ ID NO: 272 (antibody, V domains shown)
VH: B12 VH with D28T, Y32H, D57N, R58E, Y59V, V103I, L104R, A106L, I107R, H108Y
VL: B7 VL
B20: 1337-A08 light chain paired with VH 1251-A06 (SEQ ID NO: 236) (Fab, V domains shown)
VH: B12 VH
VL: B7 VL with G28D, S30G, L33V, A51S, S52D
B21: 1251-A02 heavy chain paired with VL SEQ ID NO: 272 (antibody, V domains shown)
VH: B7 VH
VL: B7 VL
B22: 1251-D09 heavy chain paired with VL SEQ ID NO: 272 (antibody, V domains shown)
VH: B12 VH with D28S, D53Y, G55A, D57I, Y59K, D62G, R102V, V103E, L104R, H108Y
VL: B7 VL
B23: 1251-E06 heavy chain paired with VL SEQ ID NO: 272 (antibody, V domains shown)
VH: QVQLVESGGGVVQPGRSLRLSCAASGFTFDSYGMHWVRQAPDKGLEWVAVIWYDGSNKVYADSVKGRFTISRDNSKNTLYLQMNSLRAEDTAVYYCARGGMVGQGAMFGLDVWGQGTTVTVSS
VL: B7 VL
B24: 1337-A09 light chain paired with VH 1251-A06 (SEQ ID NO: 236) (Fab, V domains shown)
VH: B12 VH
VL: B7 VL with S30G, S52D, S53R, N92H, S93T
B25: 1251-D06 heavy chain paired with VL SEQ ID NO: 272 (antibody, V domains shown)
VH: B10 VH with N28S, S30G, D31S, T51V, R57K, E58T, Y59I, H104R, L107V, N110L
VL: B7 VL
B26: 1337-A05 light chain paired with VH 1251-A06 (SEQ ID NO: 236) (Fab, V domains shown)
VH: B12 VH
VL: B7 VL with S30G, S31R, L33V, A50G, S52D, S53R

molecular target: CD74 on CD74 positive SU-DHL-6 cells (UniProt P04233); experiment: cell-based or functional assay
Sequence (P04233 whole entry): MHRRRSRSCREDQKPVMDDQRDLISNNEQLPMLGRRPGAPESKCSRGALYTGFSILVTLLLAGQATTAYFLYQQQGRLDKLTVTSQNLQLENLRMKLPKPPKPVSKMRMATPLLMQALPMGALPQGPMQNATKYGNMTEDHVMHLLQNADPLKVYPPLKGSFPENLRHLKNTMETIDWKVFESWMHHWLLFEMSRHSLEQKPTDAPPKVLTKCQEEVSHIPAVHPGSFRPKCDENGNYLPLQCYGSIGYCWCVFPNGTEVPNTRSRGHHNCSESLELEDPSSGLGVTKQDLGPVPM

Binder | 2nd ADC Cell Killing IC50 [pM]
B1 | 650
B2 | 2560

molecular target: CD74 on CD74 positive SU-DHL-6 cells, P04233; experiment: cell-based or functional assay
Sequence (P04233 whole entry): as above

Binder | 2nd ADC Cell Killing IC50 [pM]
B3 | 10300
B4 | 8660
B5 | 8670
B6 | 14800
B7 | 10
B8 | 17
B9 | 13
B10 | 7
B11 | 7
B12 | 6
B13 | 4
B14 | 0.2
B15 | 4
B16 | 4
B17 | 50
B18 | 14
B19 | 9
B20 | 7
B21 | 9
B22 | 7
B23 | 15
B24 | 4
B25 | 4
B26 | 4

Source: US20170253656A1
